Test results taken from article doi:10.1101/2024.07.24.604858 (bioRxiv, 2024).
Substitutions are numbered along the chain they refer to. Names may count otherwise.

T1: PfCSP N-junction peptide NPDP_(20aa) (Plasmodium falciparum (matches 3D7 …))
T1 chain: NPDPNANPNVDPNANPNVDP

T2: PfCSP central repeat peptide NANP_(20aa) (Plasmodium falciparum (repeat peptide, …))
T2 chain: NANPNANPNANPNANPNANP

B1: mAb 0786 wt (antibody, V domains shown)
VH: EVQLVESGGGLVQPGRSLRLSCTTSGFTFGDFAMSWVRQAPGKGLEWVGFIRSKANGGSTEYAASVKGRFTISRDDSKSIAYLQMDSLKTEDTAVYYCCRVWIQLWPLDYWGQGTLVTVSS
VL: EIVLTQSPGTLSLSPGERATLSCRASQSIGSSYLAWYQLKPGQAPRLLIYGASSRATGIPDRFSGSGSGTDFTLIISRLEPEDFAVYFCQQYGRSPWTFGQGTKVEIK
B2: mAb 0786 with H.N56 reverted to the GL Tyr (antibody, V domains shown)
VH: B1 VH with N56Y
VL: B1 VL
B3: mAb 0786 with H.A63P (antibody, V domains shown)
VH: B1 VH with A63P
VL: B1 VL
B4: mAb 0786 with Arg introduced at H.59 (antibody, V domains shown)
VH: B1 VH with S59R
VL: B1 VL

How the values were obtained:
[1] = target: T1, PfCSP N-junction peptide NPDP_(20aa); test: SPR
[2] = target: T2, PfCSP central repeat peptide NANP_(20aa); test: SPR

Binder | binding result [1] | binding result [2]
B1 | binds | binds
B2 | binds | binds
B3 | binds | binds
B4 | binds | binds
